Laboratory results taken from patent US20260008815A1, “CYCLIC PEPTIDE OR SALT THEREOF, AND USES THEREOF” (FUJIFILM Corporation, priority 2023, published 2026).
Bridge positions count the residues as written; N and C are the ends. Ends that are not written are not given here.

Legend:
[1] = molecular target: T1, Recombinant Human FGFR2 alpha (IIIc) Fc Chimera Protein (Homo sapiens, UniProt P21802); test: SPR binding affinity of chemically synthesized cyclic peptide to immobilized FGFR; conditions: SPR binding amount at 10 nmol/L cyclic peptide, 25° C., per one molecule of FGFR; chemically synthesized product
T1 construct: Fc (chimera); purchased R&D systems 712-FR-050
Procedure: The binding affinity of the cyclic peptide to FGFR was evaluated using a surface plasmon resonance (SPR) method.
A CM5 sensor chip (Cytiva, 29149603) was set in Biacore-T200 (manufactured by Cytiva) which is a surface plasmon resonance device, and an HBS-EP buffer (Cytiva, BR100826) was added as a running buffer at a flow rate of 10 μL/min to equilibrate the flow channel. Next, 70 μL of a mixed aqueous solution of 0.2 mol/L 1-(3-dimethylaminopropyl)-3-ethylcarbodiimide (EDC) and 0.05 mol/L N-hydroxysuccinimide (NHS) was added to activate the sensor chip. Then, Recombinant Human FGFR2 alpha (IIIc) Fc Chimera Protein CF (R&D systems, 712-FR-050) prepared at 50 nmol/L in an Acetate 4.5 buffer (Cytiva, BR100350) was added thereto to perform immobilization at about 5000 RU. Thereafter, the blocking treatment was performed with an ethanolamine solution. In addition, in another flow channel of the same sensor chip, blocking treatment was performed immediately after activation without immobilizing FGFR.
A cyclic peptide diluted to 10 nmol/L using HBS-EP was added to each flow channel of the FGFR-immobilized sensor chip produced above at 25° C. for 10 minutes, then HBS-EP was allowed to flow as a running buffer for 30 minutes, and the binding of the cyclic peptide to FGFR was measured. Thereafter, a regeneration treatment of removing the bound cyclic peptide was performed by repeating the flow of a regeneration liquid in which sodium chloride powder was dissolved in Glysine 1.5 (Cytiva, BR100354) to a final concentration of 0.15 mol/L for 1 minute in each flow channel twice. The binding amount of the cyclic peptide was evaluated from the difference between the measured value of Biacore-T200 in the flow channel in which FGFR was immobilized and the measured value of Biacore-T200 in the flow channel in which FGFR was not immobilated, in a case where a 10 nmol/L cyclic peptide was allowed to flow.
The binding amount of the cyclic peptide evaluated above was normalized to the binding amount of the cyclic peptide molecules per one molecule of FGFR using the molecular weights of the cyclic peptide and FGFR, and the binding affinity to FGFR was evaluated according to the following evaluation criteria. The evaluation result preferably satisfies the evaluation criteria A, B, or C.

[2] = Molecular stability after reducing agent (DTT) treatment, LC; type: physicochemical; conditions: residual rate after DTT aqueous solution, room temperature, 1 hour
Procedure: The molecular stability of the cyclic peptide was evaluated by analyzing an aqueous solution of the cyclic peptide treated with a reducing agent by liquid chromatography (LC).
The reducing agent treatment was performed under the following conditions based on the concentration of glutathione contained in the cells. 25 μL of a 0.2 mg/mL cyclic peptide aqueous solution was prepared, 58.8 μL of a 12.6 mmol/L DTT aqueous solution was added to the aqueous solution, and the mixture was incubated at room temperature for 1 hour to obtain an aqueous solution of the cyclic peptide treated with a reducing agent. The DTT aqueous solution was used by diluting a 1 mol/L (+−)-dithiothreitol (DTT) solution (FUJIFILM Wako Pure Chemical Corporation, 044-33871) with water. The total area of all the peaks in LC/MS of the cyclic peptide before the reducing agent treatment was set to 100%, and the proportion of the total area of all the peaks in LC/MS of the aqueous solution of the cyclic peptide treated with the reducing agent was determined to calculate the residual rate of the cyclic peptide, and the molecular stability was evaluated according to the following evaluation criteria. The evaluation result preferably satisfies the evaluation criteria A, B, or C.
The LC used for the evaluation of molecular stability was set to the following conditions. • LC device: Prominence series (pump, column oven, autosampler, detector) (manufactured by Shimadzu Corporation) • Detector: photodiode array detector (SPD-M20A), measurement wavelength of 280 nm • Column: TSKgel ODS-100V, inner diameter of 4.6 mm×length of 150 mm, particle diameter of 5 μm (manufactured by Tosoh Corporation) • Eluent A: solution containing 0.1% trifluoroacetic acid as solute, and solvent is 100% water • Eluent B: solution containing 0.1% trifluoroacetic acid as solute, and solvent is 100% acetonitrile • Flow rate: 1.0 mL/min • Injection amount: 25 μL • Gradient: 20% to 50%: Eluent B (0 to 15 minutes), 100%: Eluent B (15 minutes) • Column temperature: 40° C.

T1 sequence (P21802 with tags, fused parts or gaps limits assumed): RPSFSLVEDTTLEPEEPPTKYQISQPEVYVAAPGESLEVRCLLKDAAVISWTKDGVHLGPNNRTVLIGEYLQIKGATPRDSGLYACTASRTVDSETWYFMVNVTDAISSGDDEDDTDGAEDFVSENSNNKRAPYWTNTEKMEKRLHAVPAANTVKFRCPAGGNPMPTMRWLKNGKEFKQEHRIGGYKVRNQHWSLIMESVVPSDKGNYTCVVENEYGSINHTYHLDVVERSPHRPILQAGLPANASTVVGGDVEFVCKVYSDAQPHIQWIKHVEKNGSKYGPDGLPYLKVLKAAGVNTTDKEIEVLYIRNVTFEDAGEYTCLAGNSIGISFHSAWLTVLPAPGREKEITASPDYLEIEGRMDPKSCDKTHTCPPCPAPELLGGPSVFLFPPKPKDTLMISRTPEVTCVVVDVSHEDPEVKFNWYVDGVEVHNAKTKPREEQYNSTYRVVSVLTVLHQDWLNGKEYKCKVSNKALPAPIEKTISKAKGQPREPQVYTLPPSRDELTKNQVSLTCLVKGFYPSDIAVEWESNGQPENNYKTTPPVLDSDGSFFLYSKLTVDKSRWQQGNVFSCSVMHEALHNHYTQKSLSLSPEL

Substance | Evaluation result of binding affinity to FGFR [1] | Evaluation result of reductive stability [2]
441 (QXPQNFINPVQWRYFQHYXNKKK; not fully specified; Description of Artificial Sequence: Cyclic peptide) [compound 441] | A (The binding amount is 0.7 molecules of the cyclic peptide/one molecule of FGFR or more.) | A (The residual rate of cyclic peptide is 90% or more.)
442 (YXEENYLDPEQYQYFIYFKYKKK; not fully specified; Description of Artificial Sequence: Cyclic peptide) [compound 442] | A (The binding amount is 0.7 molecules of the cyclic peptide/one molecule of FGFR or more.) | A (The residual rate of cyclic peptide is 90% or more.)
443 (YXEENYLDPEQYQYFIYFXYKKK; not fully specified; Description of Artificial Sequence: Cyclic peptide) [compound 443] | A (The binding amount is 0.7 molecules of the cyclic peptide/one molecule of FGFR or more.) | A (The residual rate of cyclic peptide is 90% or more.)
444 (YXEENYLDPEQYQYFIYFXYKKK; not fully specified; Description of Artificial Sequence: Cyclic peptide) [compound 444] | B (The binding amount is 0.5 molecules of the cyclic peptide/one molecule of FGFR or more and less than 0.7 molecules of cyclic peptide/one molecule of FGFR.) | A (The residual rate of cyclic peptide is 90% or more.)
446 (YKEENYLDPEQYQYFIYFXYKKK; Description of Artificial Sequence: Cyclic peptide) [compound 446] | A (The binding amount is 0.7 molecules of the cyclic peptide/one molecule of FGFR or more.) | A (The residual rate of cyclic peptide is 90% or more.)
447 (YXEENYLDPEQYQYFIYFXYKKK; not fully specified; Description of Artificial Sequence: Cyclic peptide) [compound 447] | A (The binding amount is 0.7 molecules of the cyclic peptide/one molecule of FGFR or more.) | A (The residual rate of cyclic peptide is 90% or more.)
448 (YXEENYLDPEQYQYFIYFXYKKK; not fully specified; Description of Artificial Sequence: Cyclic peptide) [compound 448] | A (The binding amount is 0.7 molecules of the cyclic peptide/one molecule of FGFR or more.) | A (The residual rate of cyclic peptide is 90% or more.)
449 (YXEENYLDPEQYQYFIYFXYKKK; not fully specified; Description of Artificial Sequence: Cyclic peptide) [compound 449] | A (The binding amount is 0.7 molecules of the cyclic peptide/one molecule of FGFR or more.) | A (The residual rate of cyclic peptide is 90% or more.)
451 (YCEENYLDPEQYQYFIYFCYKKK; disulfide 2-19) [compound 451] | D (The binding amount is less than 0.1 molecules of the cyclic peptide/one molecule of FGFR.) | D (The residual rate of the cyclic peptide is less than 50%)
452 (YXHENYLDPEQYQYFHYFKYKKK; Description of Artificial Sequence: Cyclic peptide) [compound 452] | A (The binding amount is 0.7 molecules of the cyclic peptide/one molecule of FGFR or more.) | A (The residual rate of cyclic peptide is 90% or more.)
453 (YXHENYLDPEQYQYFHYFKKKK; Description of Artificial Sequence: Cyclic peptide) [compound 453] | C (The binding amount is 0.1 molecules of cyclic peptide/one molecule of FGFR or more and less than 0.5 molecules of cyclic peptide/one molecule of FGFR.) | A (The residual rate of cyclic peptide is 90% or more.)
454 (XHENYLDPEQYQYFHYFKYKKK; Description of Artificial Sequence: Cyclic peptide) [compound 454] | C (The binding amount is 0.1 molecules of cyclic peptide/one molecule of FGFR or more and less than 0.5 molecules of cyclic peptide/one molecule of FGFR.) | B (The residual rate of the cyclic peptide is 70% or more and less than 90%)
